According to publication PMC9391305:

Molecular target: endogenous PKM2 of murine PDA^T and PDA^M cells (mouse (endogenous in PDA^T and PDA^M cells)) (UniProt P52480)
Assay: cross-linking

endogenous PKM2 of murine PDA^T and PDA^M cells, P52480 1-531 (enzyme; other documents disagree on this pair), sequence (P52480 whole entry): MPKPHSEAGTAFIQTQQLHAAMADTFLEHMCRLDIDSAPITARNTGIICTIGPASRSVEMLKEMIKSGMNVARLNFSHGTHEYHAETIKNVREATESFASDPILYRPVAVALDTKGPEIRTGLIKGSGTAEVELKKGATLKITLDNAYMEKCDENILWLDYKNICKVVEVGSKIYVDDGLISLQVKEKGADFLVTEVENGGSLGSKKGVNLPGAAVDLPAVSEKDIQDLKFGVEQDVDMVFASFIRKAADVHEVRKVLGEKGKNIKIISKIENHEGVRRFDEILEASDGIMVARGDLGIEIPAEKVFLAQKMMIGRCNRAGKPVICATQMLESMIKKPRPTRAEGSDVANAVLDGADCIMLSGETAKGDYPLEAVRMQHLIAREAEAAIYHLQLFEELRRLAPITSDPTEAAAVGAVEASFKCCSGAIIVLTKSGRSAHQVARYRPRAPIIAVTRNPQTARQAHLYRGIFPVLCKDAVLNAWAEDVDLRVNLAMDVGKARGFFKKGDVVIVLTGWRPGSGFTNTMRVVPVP

stoichiometry N: 4
Substance: endogenous PKM2 of murine PDA^T and PDA^M cells, P52480 1-531 (enzyme; other documents disagree on this pair)
